Reference: the supplement of paper PMC10567573

B1: TRIM63 (parent)
chain: QRITQEQEKKLSFIEALIQQYQEQ

Variants of: B1
Test: protein stability index of a GFP-peptide fusion (GPS, HEK-293T) (PSI 1-6); higher = more stable
Conditions: c terminus: a fixed tail appended
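Also: lentivirally expressed fusions sorted by FACS into six bins by GFP to DsRed ratio, PSI derived from sequencing read proportions per bin multiplied by bin number.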

Row | Variant | protein stability index
1 | QRITQEQEKKLSFIEALIYQYQEQ [Q19Y] | 1.64
2 | QRITQEQEKKLSFIEALIPQYQEQ [Q19P] | 3.19
3 | QRITQEQEKKLSFIEALIRQYQEQ [Q19R] | 1.38
4 | QRITQEQEKKLSFIEALIWQYQEQ [Q19W] | 2.62
5 | QRITQEQEKKLSFIEALIVQYQEQ [Q19V] | 1.81
6 | QRITQEQEKKLSFIEALIQQYQEM [Q24M] | 2.57
7 | QRITQEQEKKLSFIEALIQQYQEV [Q24V] | 2.24
8 | QRITQEQEKKLSFIEALIQQYQES [Q24S] | 1.98
9 | QRITQEQEKKLSFIEALIQQYQEY [Q24Y] | 1.66
10 | QRITQEQEKKLSFIEALIQQYQEP [Q24P] | 2.68
11 | QRITQEQEKKLSFIEALIQQYQEK [Q24K] | 2.06
12 | QRITQEQEKKLSFIEALIQQYQEC [Q24C] | 2.51
13 | QRITQEQEKKLSFIEALIQQYQER [Q24R] | 2.06
14 | QRITQEQEKKLSFIEALIQQYQEA [Q24A] | 2.41
15 | QRITQEQEKKLSFIEALIQQYQEI [Q24I] | 2.52
16 | QRITQEQEKKLSFIEALIQQYQEF [Q24F] | 1.97
17 | QRITQEQEKKLSFIEALIQQYQEE [Q24E] | 2.14
18 | QRITQEQEKKLSFIEALIQQYQEL [Q24L] | 2.16
19 | QRITQEQEKKLSFIEALIQQYQEN [Q24N] | 2.25
20 | QRITQEQEKKLSFIEALIQQYQEH [Q24H] | 2.49
21 | QRITQEQEKKLSFIEALIQQYQEW [Q24W] | 1.46
22 | QRITQEQEKKLSFIEALIQQYQED [Q24D] | 1.82
23 | QRITQEQEKKLSFIEALIQQYQET [Q24T] | 2.36
24 | QRITQEQEKKLSFIEALIQQKQEQ [Y21K] | 3.8

Row | Variant | protein stability index
25 | QRITQEQEKKLSFIEALIQQWQEQ [Y21W] | 1.8
26 | QRITQEQEKKLSFIEALIQQQQEQ [Y21Q] | 2.75
27 | QRITQEQEKKLSFIEALIQQLQEQ [Y21L] | 1.6
28 | QRITQEQEKKLSFIEALIQQFQEQ [Y21F] | 1.76
29 | QRITQEQEKKLSFIEALIQQCQEQ [Y21C] | 1.75
30 | QRITQEQEKKLSFIEALIQQNQEQ [Y21N] | 4.41
31 | QRITQEQEKKLSFIEALIQQPQEQ [Y21P] | 4.33
32 | QRITQEQEKKLSFIEALIQQAQEQ [Y21A] | 3.38
33 | QRITQEQEKKLSFIEALIQQVQEQ [Y21V] | 2.32
34 | QRITQEQEKKLSFIEALIQQTQEQ [Y21T] | 3.23
35 | QRITQEQEKKLSFIEALIQQEQEQ [Y21E] | 2.11
36 | QRITQEQEKKLSFIEALIQQIQEQ [Y21I] | 1.84
37 | QRITQEQEKKLSFIEALIQQMQEQ [Y21M] | 1.98
38 | QRITQEQEKKLSFIEALIQQRQEQ [Y21R] | 3.91
39 | QRITQEQEKKLSFIEALIQQGQEQ [Y21G] | 3.61
40 | QRITQEQEKKLSFIEALIQQSQEQ [Y21S] | 3.19
41 | QRITQEQEKKLSFIEALIQQHQEQ [Y21H] | 2.55
42 | QRITQEQEKKLSFIEALIQGYQEQ [Q20G] | 3.11
43 | QRITQEQEKKLSFIEALIQCYQEQ [Q20C] | 2.23
44 | QRITQEQEKKLSFIEALIQKYQEQ [Q20K] | 5.33
45 | QRITQEQEKKLSFIEALIQLYQEQ [Q20L] | 2.43
46 | QRITQEQEKKLSFIEALIQAYQEQ [Q20A] | 2.11
47 | QRITQEQEKKLSFIEALIQFYQEQ [Q20F] | 2.6
48 | QRITQEQEKKLSFIEALIQTYQEQ [Q20T] | 2.67

Row | Variant | protein stability index
49 | QRITQEQEKKLSFIEALIQPYQEQ [Q20P] | 3.43
50 | QRITQEQEKKLSFIEALIQWYQEQ [Q20W] | 2.01
51 | QRITQEQEKKLSFIEALIQIYQEQ [Q20I] | 1.67
52 | QRITQEQEKKLSFIEALIQDYQEQ [Q20D] | 2.35
53 | QRITQEQEKKLSFIEALIQMYQEQ [Q20M] | 2.36
54 | QRITQEQEKKLSFIEALIQRYQEQ [Q20R] | 2.28
55 | QRITQEQEKKLSFIEALIQEYQEQ [Q20E] | 1.09
56 | QRITQEQEKKLSFIEALIQVYQEQ [Q20V] | 1.42
57 | QRITQEQEKKLSFIEALIQSYQEQ [Q20S] | 2.4
58 | QRITQEQEKKLSFIEALIQNYQEQ [Q20N] | 2.93
59 | QRITQEQEKKLSFIEALIQQYQQQ [E23Q] | 2.18
60 | QRITQEQEKKLSFIEALIQQYQPQ [E23P] | 1.95
61 | QRITQEQEKKLSFIEALIQQYQWQ [E23W] | 2.1
62 | QRITQEQEKKLSFIEALIQQYQFQ [E23F] | 2.01
63 | QRITQEQEKKLSFIEALIQQYQSQ [E23S] | 2
64 | QRITQEQEKKLSFIEALIQQYQYQ [E23Y] | 1.99
65 | QRITQEQEKKLSFIEALIQQYQGQ [E23G] | 2.57
66 | QRITQEQEKKLSFIEALIQQYQLQ [E23L] | 2.65
67 | QRITQEQEKKLSFIEALIQQYQCQ [E23C] | 2.37
68 | QRITQEQEKKLSFIEALIQQYQAQ [E23A] | 1.96
69 | QRITQEQEKKLSFIEALIQQYQHQ [E23H] | 2.14
70 | QRITQEQEKKLSFIEALIQQYQNQ [E23N] | 1.9
71 | QRITQEQEKKLSFIEALIQQYQTQ [E23T] | 1.94
72 | QRITQEQEKKLSFIEALIQQYQRQ [E23R] | 1.97

Row | Variant | protein stability index
73 | QRITQEQEKKLSFIEALIQQYQKQ [E23K] | 2.4
74 | QRITQEQEKKLSFIEALIQQYQIQ [E23I] | 1.54
75 | QRITQEQEKKLSFIEALIQQYQDQ [E23D] | 2.62
76 | QRITQEQEKKLSFIEALIQQYQMQ [E23M] | 1.51
77 | QRITQEQEKKLSFIEALIQQYQVQ [E23V] | 2.34
78 | QRITQEQEKKLSFIEALIQQYHEQ [Q22H] | 2.52
79 | QRITQEQEKKLSFIEALIQQYEEQ [Q22E] | 1.5
80 | QRITQEQEKKLSFIEALIQQYFEQ [Q22F] | 2.02
81 | QRITQEQEKKLSFIEALIQQYIEQ [Q22I] | 1.35
82 | QRITQEQEKKLSFIEALIQQYCEQ [Q22C] | 2.48
83 | QRITQEQEKKLSFIEALIQQYREQ [Q22R] | 2.42
84 | QRITQEQEKKLSFIEALIQQYTEQ [Q22T] | 2.22
85 | QRITQEQEKKLSFIEALIQQYMEQ [Q22M] | 1.79
86 | QRITQEQEKKLSFIEALIQQYKEQ [Q22K] | 2.03
87 | QRITQEQEKKLSFIEALIQQYAEQ [Q22A] | 2.36
88 | QRITQEQEKKLSFIEALIQQYYEQ [Q22Y] | 2.62
89 | QRITQEQEKKLSFIEALIQQYPEQ [Q22P] | 3.12
90 | QRITQEQEKKLSFIEALIQQYNEQ [Q22N] | 2.79
91 | QRITQEQEKKLSFIEALIQQYSEQ [Q22S] | 2.41
92 | QRITQEQEKKLSFIEALIQQYGEQ [Q22G] | 2.89
93 | QRITQEQEKKLSFIEALIQQYDEQ [Q22D] | 1.77
94 | QRITQEQEKKLSFIEALIQQYLEQ [Q22L] | 2.1
